# Laboratory results from the RNAGym collection of RNA variant scans (doi:10.1073/pnas.2313332121).
# B1: TPR t1 (parent)
# chain: GACCAAUCUGCCCUCAGAGCUCGAGAACAUCUUCGGAUGCAGAGGAGGCAGGCUUCGGUGGCGCGAUAGCGCCAACGUCCUCAACCUCCAAUGCAUCCCACCACAUGAUGAUGCCUGAAGAGCCUUGGUUUUUUG
# Variants of: B1
# Test: polymerase ribozyme fitness, log enrichment relative to wild type (log ratio); higher = more active; in vitro selection for triplet polymerase activity
# Outline: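 Input and output libraries were sequenced on Illumina after a single in vitro selection round, run in triplicate on PCR-built, transcribed mutant libraries of each subunit of a heterodimeric triplet polymerase ribozyme. Selection annealed libraries to a biotinylated primer, the partner subunit and triplets, incubated them frozen at −7 °C, then gel-excised extended constructs for streptavidin-bead capture and RT-PCR. Genotypes with ≥10 input reads and ≥1 read per output were kept. Fitness is the logarithm, taken in base 2, of genotype enrichment divided by wild-type enrichment, using inverse-variance-weighted replicate averages.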
row,Variant,polymerase ribozyme fitness (log ratio)
1,U59A C72A,-1.18
2,C40U C56A C73U C82G C97U C115U,-4.44
3,G10A C13U C15U C79A A100U C124G U131G,-0.0361
4,A6G C22U G44C C88U,-6.05
5,C72G C89A A90U,-2.32
6,G61A A83C G110U G117U,-5.13
7,C3U C53G U112A,0.998
8,A111G U130G,-0.2
9,U54C G61C A75U,0.0964
10,A43U A46G C53G U87C C115U,-2.37
11,C49U G63A C80U G120A,-5.11
12,C12U G48A C49G G51A U112A C123A,0.0276
13,G77A A91G C114U,-2.54
14,G60U G120C,1.43
15,A43C G47U G52A C56U,-4.62
16,C13U C20U A83G U96A,-3.34
17,C20A C73U C97U A121C,-1.59
18,A24G G61A A84U C85A,-2.08
19,A27U G63A G69U U131C,-4.16
20,C13A C82G,-1.93
21,C56G G71A C82A C115A,-3.76

row,Variant,polymerase ribozyme fitness (log ratio)
1,A50C A100C,-1.68
2,A46U A74U,-0.906
3,C40U C94U G128U,-4.33
4,G51C G93C,-4.73
5,U14G G45C,-3.41
6,A108G C115U,-3.36
7,C12U U21A C40G C89G A121G,-1.38
8,C15U C94A,-2.56
9,A37U U130G,-1.28
10,A5U A43G C124A,-0.815
11,A2G C53A G60A A105C,-4.11
12,G58A C64U A66U U130A,-2.13
13,U32G C70A G117A,-5.24
14,G63A C82U U126G,-2.36
15,G57C G93A,-0.552
16,C11G G110U,-0.409
17,C8G U33G C72G C80U A103U G110C A121C U129C,-7.86
18,C53A C70A,-1.81
19,C70A C101G,-4.14
20,G60U C70A C114U,-7.08
21,C4U C12G C49G A95U A111G,-1.16

row,Variant,polymerase ribozyme fitness (log ratio)
1,G48C C56U C73G,-1.95
2,C12A A43C C53U,-2.86
3,G71U C102A,-2.25
4,C72U U81C G93C A119U G120C,-0.213
5,C40A G61A A105G,-4.93
6,C70U U87C C89A G120C,-2.9
7,C20U G52U C72U,-3.02
8,G77C G110A A118C,-1.65
9,G51C G61U,-5.29
10,C73G C89G U131A,-2.56
11,G52C G69C G117C,-6.05
12,C13U U106A,-0.0681
13,C15U A37C C53A,-1.72
14,G60C U133A,-0.621
15,G60C C102A G110A,-4.88
16,C56U U87A C123G,1.81
17,G117A G135C,-1.41
18,A16U C94U C101U U116C G128U U132A,-5.42
19,G69U G120A G128C,-1.25
20,U55G C72G C82U A100U G113U,-5.31
21,C80A U112G,-4.16

row,Variant,polymerase ribozyme fitness (log ratio)
1,G10A C70U C79U C82G G120C G128U,-2.34
2,C8A U87A G107C,-4.36
3,C11A G47A G69U G77U,-1.86
4,A5U G61C,-1.74
5,G25C G69U A111U,-7
6,G42C G61U G120A,-0.458
7,C3U C12A U87C C124U,-0.256
8,C4G C53A C56U C99U U130G,-5.15
9,C4U A29C G48U C56G A119G,-3.08
10,G10C A18U C88A C97U U106C,-5.16
11,G77A G110A,-1.28
12,A16G G42C A43C C123A,-3.43
13,U59A U129G,-1.18
14,U7G C79A C99U,-5.33
15,U9A G42A U129A,-2.88
16,G44A C72G C114A A121U G127C,-2.5
17,A43C G44C A118U U133G,-1.11
18,C11U G36A C101U,-4.98
19,C40U C73U G93U U130G,-2.36
20,C11A G61U,-1.39
